Measured values: patent US20240247066A1 (published 2024)

Legend:
[1] = molecular target: NY-ESO1/A2 (;human, UniProt A*02:01, biotin on the biotinylation tag (BirA)); assay: SPR
[2] = molecular target: Trp2/H-2Kb (;mouse, biotin on the biotinylation tag (BirA)); assay: SPR

Row | Binder | Kd [1] [nM] | Kd [2] [nM]
1 | N5 (scFv) EVQLLESGGGLVQPGGSLRLSCAASGFTFSTYQMSWVRQAPGKGLEWVSGIVSSGGSTAYADSVKGRFTISRDNSKNTLYLQMNSLRAEDTAVYYCAGELLPFYGMDYWGQGTTVTVSQSELTQPRSVSGSPGQSVTISCTGTLRDVGGYNYVSWYQQHPGKAPKLIIHDVIERSSGVPDRFSGSKSGNTASLTISGLQAEDEADYYCWSAAMAYGVFGTGTDVTVL | 2 | –
2 | IgG2a #13 (antibody, V domains shown) VH: EVLLQQSGPELVKPGASVKIPCKASGYTFTDYYMDWVKQSHGKSLEWIGLINPNNGGTVYNQKFKGKATLTVDKSSSAAYMEVRSLTSEDTAVYYCARKPYTGHPAWFAYWGQGTLVTVSA VL: DIQVTQSSSSFSVSLGDRVTITCKASEDIYNRLAWYQQKPGNAPRLLISGATSLETGVPDRFSGSGSRKDYTLIITSLQTEDVATYYCQQYYAFPLTFGAGTKLELK | – | 2.5
